{"source": "paper PMC9482650", "about": "“Quantitative fragmentomics allow affinity mapping of interactomes” (Nature Communications, 2022)", "binders": {"B1": {"name": "ACOT8, O14734 (peptide)", "chain": "VKPQVSESKL"}, "B2": {"name": "SAPCD1, Q5SSQ6 (peptide)", "chain": "TKGPRGPTRV"}}, "data": [{"molecular_target": "SCRIB_1, Q14160", "sequence (Q14160 718-814)": "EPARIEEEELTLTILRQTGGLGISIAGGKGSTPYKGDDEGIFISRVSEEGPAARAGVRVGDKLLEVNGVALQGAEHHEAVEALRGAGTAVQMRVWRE", "experiment": "holdup assay", "parameters": "key: below the threshold = too weak to quantify, mostly under pKd 3.1 to 4", "details": "plain residues with an end cap or a label only (N-terminal biotin on a linker: ado-ado)", "values": [{"binder": "B1", "pKd": 4.32}, {"binder": "B2", "pKd": 3.7}]}, {"molecular_target": "T1, ARHGEF11, O15085", "T1 sequence (O15085 42-136, limits assumed, looked up)": "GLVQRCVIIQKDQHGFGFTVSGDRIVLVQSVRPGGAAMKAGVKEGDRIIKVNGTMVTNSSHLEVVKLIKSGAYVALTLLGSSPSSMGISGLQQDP", "experiment": "holdup assay", "parameters": "key: below the threshold = too weak to quantify, mostly under pKd 3.1 to 4", "details": "plain residues with an end cap or a label only (N-terminal biotin on a linker: ado-ado)", "values": [{"binder": "B1", "pKd": "below the threshold"}, {"binder": "B2", "pKd": 4.03}]}, {"molecular_target": "ARHGEF12, Q9NZN5-2", "sequence (Q9NZN5 other isoform, or with tags, fused parts or gaps)": "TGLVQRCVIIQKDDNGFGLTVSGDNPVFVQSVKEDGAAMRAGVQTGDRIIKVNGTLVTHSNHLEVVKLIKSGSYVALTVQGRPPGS", "experiment": "holdup assay", "parameters": "key: below the threshold = too weak to quantify, mostly under pKd 3.1 to 4", "details": "plain residues with an end cap or a label only (N-terminal biotin on a linker: ado-ado)", "values": [{"binder": "B1", "pKd": 4.03}, {"binder": "B2", "pKd": 4.24}]}, {"molecular_target": "T2, DVL3, Q92997", "T2 sequence (Q92997 244-331, limits assumed, looked up)": "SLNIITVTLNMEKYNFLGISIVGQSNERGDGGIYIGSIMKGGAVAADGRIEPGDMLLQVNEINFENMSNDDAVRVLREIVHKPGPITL", "experiment": "holdup assay", "parameters": "key: below the threshold = too weak to quantify, mostly under pKd 3.1 to 4", "details": "plain residues with an end cap or a label only (N-terminal biotin on a linker: ado-ado)", "values": [{"binder": "B1", "pKd": "below the threshold"}, {"binder": "B2", "pKd": "below the threshold"}]}, {"molecular_target": "Inadl_3, Q8NI35", "sequence (Q8NI35 359-469)": "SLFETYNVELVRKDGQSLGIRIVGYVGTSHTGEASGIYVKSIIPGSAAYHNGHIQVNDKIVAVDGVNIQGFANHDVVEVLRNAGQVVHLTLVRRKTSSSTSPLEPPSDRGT", "experiment": "holdup assay", "parameters": "key: below the threshold = too weak to quantify, mostly under pKd 3.1 to 4", "details": "plain residues with an end cap or a label only (N-terminal biotin on a linker: ado-ado)", "values": [{"binder": "B1", "pKd": "below the threshold"}, {"binder": "B2", "pKd": "below the threshold"}]}, {"molecular_target": "T3, HTRA4, P83105", "T3 sequence (P83105 378-476, limits assumed, looked up)": "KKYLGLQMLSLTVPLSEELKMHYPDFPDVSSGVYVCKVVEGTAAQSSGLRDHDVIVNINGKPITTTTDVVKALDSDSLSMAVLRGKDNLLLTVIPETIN", "experiment": "holdup assay", "parameters": "key: below the threshold = too weak to quantify, mostly under pKd 3.1 to 4", "details": "plain residues with an end cap or a label only (N-terminal biotin on a linker: ado-ado)", "values": [{"binder": "B1", "pKd": "below the threshold"}, {"binder": "B2", "pKd": 3.96}]}, {"molecular_target": "T4, MPP2, Q14168", "T4 sequence (Q14168 180-250, limits assumed, looked up)": "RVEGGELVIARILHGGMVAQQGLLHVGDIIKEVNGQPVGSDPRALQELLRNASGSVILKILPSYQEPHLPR", "experiment": "holdup assay", "parameters": "key: below the threshold = too weak to quantify, mostly under pKd 3.1 to 4", "details": "plain residues with an end cap or a label only (N-terminal biotin on a linker: ado-ado)", "values": [{"binder": "B1", "pKd": "below the threshold"}, {"binder": "B2", "pKd": "below the threshold"}]}, {"molecular_target": "T5, APBA2_1, Q99767", "T5 sequence (Q99767 563-664, limits assumed, looked up)": "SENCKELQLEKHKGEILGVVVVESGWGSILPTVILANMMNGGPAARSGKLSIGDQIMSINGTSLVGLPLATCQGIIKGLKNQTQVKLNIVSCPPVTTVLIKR", "experiment": "holdup assay", "parameters": "key: below the threshold = too weak to quantify, mostly under pKd 3.1 to 4", "details": "plain residues with an end cap or a label only (N-terminal biotin on a linker: ado-ado)", "values": [{"binder": "B1", "pKd": "below the threshold"}, {"binder": "B2", "pKd": "below the threshold"}]}, {"molecular_target": "T6, SNTG1, Q9NSN8", "T6 sequence (Q9NSN8 52-150, limits assumed, looked up)": "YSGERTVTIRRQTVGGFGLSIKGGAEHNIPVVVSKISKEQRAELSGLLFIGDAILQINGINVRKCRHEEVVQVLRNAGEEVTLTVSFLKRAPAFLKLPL", "experiment": "holdup assay", "parameters": "key: below the threshold = too weak to quantify, mostly under pKd 3.1 to 4", "details": "plain residues with an end cap or a label only (N-terminal biotin on a linker: ado-ado)", "values": [{"binder": "B1", "pKd": "below the threshold"}, {"binder": "B2", "pKd": "below the threshold"}]}, {"molecular_target": "T7, APBA1_2, Q02410", "T7 sequence (Q02410 742-832, limits assumed, looked up)": "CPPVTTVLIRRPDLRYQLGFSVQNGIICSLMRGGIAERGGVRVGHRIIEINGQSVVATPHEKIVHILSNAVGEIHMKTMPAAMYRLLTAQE", "experiment": "holdup assay", "parameters": "key: below the threshold = too weak to quantify, mostly under pKd 3.1 to 4", "details": "plain residues with an end cap or a label only (N-terminal biotin on a linker: ado-ado)", "values": [{"binder": "B1", "pKd": "below the threshold"}, {"binder": "B2", "pKd": 4.47}]}, {"molecular_target": "GRIP2_3, Q9C0E4", "sequence (Q9C0E4 238-339)": "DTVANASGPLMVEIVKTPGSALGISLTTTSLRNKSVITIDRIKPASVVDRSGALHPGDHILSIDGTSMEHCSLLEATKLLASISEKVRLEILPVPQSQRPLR", "experiment": "holdup assay", "parameters": "key: below the threshold = too weak to quantify, mostly under pKd 3.1 to 4", "details": "plain residues with an end cap or a label only (N-terminal biotin on a linker: ado-ado)", "values": [{"binder": "B1", "pKd": "below the threshold"}, {"binder": "B2", "pKd": "below the threshold"}]}, {"molecular_target": "T8, MPDZ_12, O75970", "T8 sequence (O75970 1857-1958, limits assumed, looked up)": "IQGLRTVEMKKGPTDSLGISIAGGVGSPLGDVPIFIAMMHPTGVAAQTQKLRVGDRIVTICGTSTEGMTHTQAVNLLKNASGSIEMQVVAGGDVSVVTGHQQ", "experiment": "holdup assay", "parameters": "key: below the threshold = too weak to quantify, mostly under pKd 3.1 to 4", "details": "plain residues with an end cap or a label only (N-terminal biotin on a linker: ado-ado)", "values": [{"binder": "B1", "pKd": "below the threshold"}, {"binder": "B2", "pKd": "below the threshold"}]}, {"molecular_target": "LIMK2, P53671", "sequence (P53671 143-248)": "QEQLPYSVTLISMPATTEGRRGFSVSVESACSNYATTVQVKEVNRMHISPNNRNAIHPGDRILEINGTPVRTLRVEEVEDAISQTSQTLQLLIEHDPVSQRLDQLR", "experiment": "holdup assay", "parameters": "key: below the threshold = too weak to quantify, mostly under pKd 3.1 to 4", "details": "plain residues with an end cap or a label only (N-terminal biotin on a linker: ado-ado)", "values": [{"binder": "B1", "pKd": "below the threshold"}, {"binder": "B2", "pKd": "below the threshold"}]}, {"molecular_target": "TJP1_2, Q07157", "sequence (Q07157 181-274)": "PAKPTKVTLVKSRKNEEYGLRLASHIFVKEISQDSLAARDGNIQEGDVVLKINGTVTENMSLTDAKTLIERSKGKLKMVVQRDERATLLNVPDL", "experiment": "holdup assay", "parameters": "key: below the threshold = too weak to quantify, mostly under pKd 3.1 to 4", "details": "plain residues with an end cap or a label only (N-terminal biotin on a linker: ado-ado)", "values": [{"binder": "B1", "pKd": "below the threshold"}, {"binder": "B2", "pKd": "below the threshold"}]}, {"molecular_target": "T9, TIAM2, Q8IVF5", "T9 sequence (Q8IVF5 885-986, limits assumed, looked up)": "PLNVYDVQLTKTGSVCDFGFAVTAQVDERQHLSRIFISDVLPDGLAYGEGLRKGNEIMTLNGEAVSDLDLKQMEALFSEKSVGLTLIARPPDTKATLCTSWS", "experiment": "holdup assay", "parameters": "key: below the threshold = too weak to quantify, mostly under pKd 3.1 to 4", "details": "plain residues with an end cap or a label only (N-terminal biotin on a linker: ado-ado)", "values": [{"binder": "B1", "pKd": 4.03}, {"binder": "B2", "pKd": "below the threshold"}]}, {"molecular_target": "MAST2, Q6P0Q8", "sequence (Q6P0Q8 1099-1202)": "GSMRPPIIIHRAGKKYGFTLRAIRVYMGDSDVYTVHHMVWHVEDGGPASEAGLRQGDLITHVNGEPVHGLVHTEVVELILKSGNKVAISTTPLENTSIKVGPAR", "experiment": "holdup assay", "parameters": "key: below the threshold = too weak to quantify, mostly under pKd 3.1 to 4", "details": "plain residues with an end cap or a label only (N-terminal biotin on a linker: ado-ado)", "values": [{"binder": "B1", "pKd": 5.52}, {"binder": "B2", "pKd": 4.67}]}, {"molecular_target": "T10, PDZD7_3, Q9H5P4", "T10 sequence (Q9H5P4 857-944, limits assumed, looked up)": "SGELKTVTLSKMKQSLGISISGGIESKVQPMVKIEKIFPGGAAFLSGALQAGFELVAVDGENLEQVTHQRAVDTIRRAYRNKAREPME", "experiment": "holdup assay", "parameters": "key: below the threshold = too weak to quantify, mostly under pKd 3.1 to 4", "details": "plain residues with an end cap or a label only (N-terminal biotin on a linker: ado-ado)", "values": [{"binder": "B1", "pKd": 4.15}, {"binder": "B2", "pKd": 4.74}]}, {"molecular_target": "T11, MPP7, Q5T2T1", "T11 sequence (Q5T2T1 134-230, limits assumed, looked up)": "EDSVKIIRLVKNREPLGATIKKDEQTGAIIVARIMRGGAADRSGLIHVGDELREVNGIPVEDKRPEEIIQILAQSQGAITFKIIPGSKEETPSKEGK", "experiment": "holdup assay", "parameters": "key: below the threshold = too weak to quantify, mostly under pKd 3.1 to 4", "details": "plain residues with an end cap or a label only (N-terminal biotin on a linker: ado-ado)", "values": [{"binder": "B1", "pKd": "below the threshold"}, {"binder": "B2", "pKd": "below the threshold"}]}, {"molecular_target": "T12, GRIP1_7, Q9Y3R0", "T12 sequence (Q9Y3R0 999-1096, limits assumed, looked up)": "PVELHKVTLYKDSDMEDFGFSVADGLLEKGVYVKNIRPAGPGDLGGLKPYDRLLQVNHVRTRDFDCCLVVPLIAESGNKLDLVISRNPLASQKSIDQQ", "experiment": "holdup assay", "parameters": "key: below the threshold = too weak to quantify, mostly under pKd 3.1 to 4", "details": "plain residues with an end cap or a label only (N-terminal biotin on a linker: ado-ado)", "values": [{"binder": "B1", "pKd": "below the threshold"}, {"binder": "B2", "pKd": "below the threshold"}]}, {"molecular_target": "T13, NHERF3_3, Q5T2W1", "T13 sequence (Q5T2W1 238-333, limits assumed, looked up)": "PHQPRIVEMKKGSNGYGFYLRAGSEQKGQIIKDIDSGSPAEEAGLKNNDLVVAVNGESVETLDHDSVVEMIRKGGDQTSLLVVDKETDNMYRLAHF", "experiment": "holdup assay", "parameters": "key: below the threshold = too weak to quantify, mostly under pKd 3.1 to 4", "details": "plain residues with an end cap or a label only (N-terminal biotin on a linker: ado-ado)", "values": [{"binder": "B1", "pKd": "below the threshold"}, {"binder": "B2", "pKd": "below the threshold"}]}, {"molecular_target": "GOPC, Q9HD26", "experiment": "holdup assay", "parameters": "key: below the threshold = too weak to quantify, mostly under pKd 3.1 to 4", "details": "plain residues with an end cap or a label only (N-terminal biotin on a linker: ado-ado)", "values": [{"binder": "B1", "pKd": 3.51}, {"binder": "B2", "pKd": 4.19}]}, {"molecular_target": "DLG5_1, Q8TDM6", "sequence (Q8TDM6 617-713)": "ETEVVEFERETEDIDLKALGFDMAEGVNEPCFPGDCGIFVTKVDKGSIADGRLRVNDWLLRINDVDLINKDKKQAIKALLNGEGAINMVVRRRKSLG", "experiment": "holdup assay", "parameters": "key: below the threshold = too weak to quantify, mostly under pKd 3.1 to 4", "details": "plain residues with an end cap or a label only (N-terminal biotin on a linker: ado-ado)", "values": [{"binder": "B1", "pKd": "below the threshold"}, {"binder": "B2", "pKd": "below the threshold"}]}, {"molecular_target": "T14, LNX2_2, Q8N448", "T14 sequence (Q8N448 334-432, limits assumed, looked up)": "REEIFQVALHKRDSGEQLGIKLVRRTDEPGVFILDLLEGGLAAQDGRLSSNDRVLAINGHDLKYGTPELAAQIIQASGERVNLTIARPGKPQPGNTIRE", "experiment": "holdup assay", "parameters": "key: below the threshold = too weak to quantify, mostly under pKd 3.1 to 4", "details": "plain residues with an end cap or a label only (N-terminal biotin on a linker: ado-ado)", "values": [{"binder": "B1", "pKd": "below the threshold"}, {"binder": "B2", "pKd": 3.87}]}, {"molecular_target": "HTRA2, O43464", "sequence (O43464 355-458)": "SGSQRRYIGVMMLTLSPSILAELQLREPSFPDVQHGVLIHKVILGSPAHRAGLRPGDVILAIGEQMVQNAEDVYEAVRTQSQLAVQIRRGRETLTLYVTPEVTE", "experiment": "holdup assay", "parameters": "key: below the threshold = too weak to quantify, mostly under pKd 3.1 to 4", "details": "plain residues with an end cap or a label only (N-terminal biotin on a linker: ado-ado)", "values": [{"binder": "B1", "pKd": "below the threshold"}, {"binder": "B2", "pKd": "below the threshold"}]}]}
